Laboratory results as given in US20250179196A1 (Janssen / Centocor, published 2025).

Tests used:
[1] = biological target: T1, human IL-23R expressed on the cell surface of stably transfected iLite and HEK cell lines (human, UniProt Q5VWK5 24-629); experiment: flow cytometry on human IL-23R iLite cells, Expt A (1-point)
T1 construct: whole, on cells; Same receptor on two transfected cell lines; the cell line is named under assay; also called human IL-23R iLite cells; human IL-23R HEK cells
T1 sequence (looked up): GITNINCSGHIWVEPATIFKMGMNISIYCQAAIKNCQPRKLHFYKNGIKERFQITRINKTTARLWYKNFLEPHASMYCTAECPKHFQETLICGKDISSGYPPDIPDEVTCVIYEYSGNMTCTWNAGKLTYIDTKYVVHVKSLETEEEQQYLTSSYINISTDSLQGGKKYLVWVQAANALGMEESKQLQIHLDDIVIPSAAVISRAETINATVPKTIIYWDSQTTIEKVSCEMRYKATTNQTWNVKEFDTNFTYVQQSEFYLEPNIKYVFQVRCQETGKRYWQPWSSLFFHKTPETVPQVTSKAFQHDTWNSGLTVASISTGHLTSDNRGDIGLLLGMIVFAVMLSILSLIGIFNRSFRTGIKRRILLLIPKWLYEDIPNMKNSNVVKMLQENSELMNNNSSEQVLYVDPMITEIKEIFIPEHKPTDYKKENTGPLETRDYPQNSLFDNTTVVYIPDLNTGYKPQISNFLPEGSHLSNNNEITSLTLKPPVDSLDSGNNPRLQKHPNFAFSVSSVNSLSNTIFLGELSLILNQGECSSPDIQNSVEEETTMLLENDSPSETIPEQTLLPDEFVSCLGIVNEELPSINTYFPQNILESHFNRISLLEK
Description: Human IL-23R iLiTe cell single concentration mAb Binding. Anti-IL-23R mouse IgG₂ₐ mAbs derived from phage panning were tested for binding to human IL-23R expressing iLiTe cells, where a PE conjugated anti mouse secondary antibody detected mAbs bound to the receptor on the cells. […] The next day 100,000 cells were added to each well of a 96 well V bottom plate (Costar, Catalog #3357), centrifuged at 450× gravity for 2 minutes, and then supernatants were decanted. […] Antibodies diluted to 3 μg/mL in Stain Buffer (BSA) (BD Pharmagen, Catalog #554657) were added at 100 μL/well and incubated on ice for 50 minutes, then plates were centrifuged and supernatants were decanted. […] Cells were washed by adding 100 μL/well of Stain Buffer followed by centrifugation and decanting of the supernatants. Cells were resuspended in 100 μL/well of Stain Buffer and analyzed on the Becton Dickenson LSR II FACS instrument with HTS module. Data was analyzed using FlowJo software (Treestar) to obtain geometric mean fluorescence intensities.

[2] = biological target: T1, human IL-23R expressed on the cell …; experiment: flow cytometry on human IL-23R iLite cells, Expt C (12-point), Gate 1 + 2
Description: (§1) Human IL-23R iLiTe cell concentration response mAb binding. […] The next day 100,000 cells were added to each well of a 96 well V bottom plate (Costar, Catalog #3357), centrifuged at 450× gravity for 2 minutes, and then supernatants were decanted. Antibodies were diluted in Stain Buffer (BSA) (BD Pharmagen, Catalog #554657) and added at 50 μL/well, and mixed. Plates were incubated on ice for 50 minutes, then plates were centrifuged and supernatants were decanted. […] Cells were washed by adding 200 μL/well of Stain Buffer followed by centrifugation and decanting of the supernatants. Cells were resuspended in 100 μL/well of Stain Buffer, transferred in quadruplicate to a 384 well plate (Greiner, Catalog #781281) and analyzed on the Becton Dickenson LSR II FACS instrument with HTS module. Data was analyzed using FlowJo software (Treestar) to obtain geometric mean fluorescence intensities, and geometric mean fluorescence intensities were plotted over log mAb concentrations fitted with a sigmoidal dose response curve with variable slope using GraphPad Prism.

[3] = biological target: T1, human IL-23R expressed on the cell …; experiment: flow cytometry on human IL-23R HEK cells, Expt E (11-point, 384well)
Method in brief: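 Antibody bound to HEK-IL-23R cells 30 min at 37 °C over 11 concentrations; after washes, Sytox Green added and cells run on iQue. Geometric MFI of 647 detection antibody on single viable cells fitted by variable-slope dose–response.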

[4] = biological target: T1, human IL-23R expressed on the cell …; experiment: flow cytometry on human IL-23R iLite cells, Expt C (12-point), Gate 2
Description: as §1

[5] = biological target: T1, human IL-23R expressed on the cell …; experiment: flow cytometry on human IL-23R iLite cells, Expt B (1-point)
Description: Human IL-23R iLiTe cell single concentration mAb Binding. Anti-IL-23R mouse IgG₂ₐ mAbs derived from phage panning were tested for binding to human IL-23R expressing iLiTe cells, where a PE conjugated anti mouse secondary antibody detected mAbs bound to the receptor on the cells. […] The next day 100,000 cells were added to each well of a 96 well V bottom plate (Costar, Catalog #3357), centrifuged at 450× gravity for 2 minutes, and then supernatants were decanted. […] Cells were washed by adding 100 μL/well of Stain Buffer followed by centrifugation and decanting of the supernatants. Cells were resuspended in 100 μL/well of Stain Buffer and analyzed on the Becton Dickenson LSR II FACS instrument with HTS module. Data was analyzed using FlowJo software (Treestar) to obtain geometric mean fluorescence intensities.

[6] = biological target: T1, human IL-23R expressed on the cell …; experiment: flow cytometry on human IL-23R HEK cells, Expt D (8-point, 96well); legend: N-No cell binding observed
Description: HEK-IL-23R cell concentration response mAb binding (8-point, 96-well assay). […] HEK-IL-23R and HEK-parental cells (12.5 μL of each, 120000 cells total) were plated in 2× replicate on 96-well V-bottom plates (Corning, Cat #3357) into 37° C. warmed Assay medium containing serially diluted IL-23R mAbs to a final volume of 150 μL. IL-23R mAbs were allowed to bind to cells for 30 minutes, at 37° C. […] Cells were next washed twice in ice-cold stain buffer, then resuspended in a final volume of 30 μL with Sytox Green viability dye (ThermoFisher, Cat #S7020). Plates were kept on ice until run for analysis on the iQue. All washes were performed by centrifugation (800 rcf, 3 minutes) followed by flick decantation to remove supernatants. Cell-binding to HEK-IL-23R cells was measured with FlowJo, by gating for single, viable cells and determining the geometric mean fluorescence intensity (MFI) for the 647 detection antibody. Geometric mean fluorescence intensities were plotted over log mAb concentrations fitted with a dose response curve with variable slope using GraphPad Prism.

[7] = biological target: T2, human IL-23R extracellular domain (ECD) protein (human, UniProt Q5VWK5 24-355); experiment: column 'Affinity to hu IL-23R ECD' (summary of SPR data)
T2 construct: Recombinant ECD; also called hu IL-23R ECD
T2 sequence: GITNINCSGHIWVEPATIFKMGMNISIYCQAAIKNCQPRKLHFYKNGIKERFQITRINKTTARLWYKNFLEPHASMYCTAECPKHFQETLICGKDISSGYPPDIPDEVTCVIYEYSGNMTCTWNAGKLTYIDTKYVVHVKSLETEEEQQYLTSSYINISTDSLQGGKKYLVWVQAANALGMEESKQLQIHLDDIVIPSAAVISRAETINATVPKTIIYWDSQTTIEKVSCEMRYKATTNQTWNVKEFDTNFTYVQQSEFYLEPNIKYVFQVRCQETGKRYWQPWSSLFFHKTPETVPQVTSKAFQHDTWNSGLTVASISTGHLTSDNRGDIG

| Binder | MFI @ 20 nM [1] [MFI] | EC50 [2] [nM] | MFI (6.4 nM) [3] [MFI] | EC50 [4] [nM] | MFI @ 0.7 nM [5] [MFI] | binding result [6] | Kd [7] [nM] |
| --- | --- | --- | --- | --- | --- | --- | --- |
| I23RB1 (antibody, mouse IgG2a, kappa, V domains shown, phage display; human V, mouse IgG2a/kappa) VH: QVQLVQSGAEVKKPGSSVKVSCKASGGTFKNYAISWVRQAPGQGLEWMGWIRPIFGTAYYAQKFQGRVTITADESTSTAYMELSSLRSEDTAVYYCARDSGSRYAGRYAFDYWGQGTLVTVSS VL: EIVLTQSPATLSLSPGERATLSCRASQSVSSYLAWYQQKPGQAPRLLIYDASNRATGIPARFSGSGSGTDFTLTISSLEPEDFAVYYCQQRSNWPLTFGQGTKVEIKR | 5090 | 0.26 | 287000 | 0.02 | 2990 | – | – |
| I23RB3 (antibody, mouse IgG2a, kappa, V domains shown, phage display; human V, mouse IgG2a/kappa) VH: QVQLVQSGAEVKKPGSSVKVSCKASGGTFKSYSIHWVRQAPGQGLEWMGGIIPYFGYANYAQKFQGRVTITADESTSTAYMELSSLRSEDTAVYYCARERGYYGSIYYGGGFDYWGQGTLVTVSS VL: EIVLTQSPATLSLSPGERATLSCRASQSVSSYLAWYQQKPGQAPRLLIYDASNRATGIPARFSGSGSGTDFTLTISSLEPEDFAVYYCQQRSNWPLTFGQGTKVEIKR | 4320 | 0.66 | 149000 | 0.37 | 1460 | – | – |
| I23RB2 (antibody, mouse IgG2a, kappa, V domains shown, phage display; human V, mouse IgG2a/kappa) VH: QVQLVQSGAEVKKPGSSVKVSCKASGGTFSSYAISWVRQAPGQGLEWMGGIIPIFGTANYAQKFQGRVTITADESTSTAYMELSSLRSEDTAVYYCARDRYRYLGANGFDYWGQGTLVTVSS VL: EIVLTQSPATLSLSPGERATLSCRASQSVSSYLAWYQQKPGQAPRLLIYDASNRATGIPARFSGSGSGTDFTLTISSLEPEDFAVYYCQQRSNWPLTFGQGTKVEIKR | 4110 | 1.09 | – | 1.11 | 670 | – | – |
| I23RB4 (antibody, mouse IgG2a, kappa, V domains shown, phage display; human V, mouse IgG2a/kappa) VH: QVQLVQSGAEVKKPGSSVKVSCKASGGTFKTYAIHWVRQAPGQGLEWMGWIIPIFGTANYAQKFQGRVTITADESTSTAYMELSSLRSEDTAVYYCARDGGYYGSRYYPRSYYFDYWGQGTLVTVSS VL: EIVLTQSPATLSLSPGERATLSCRASQSVSSYLAWYQQKPGQAPRLLIYDASNRATGIPARFSGSGSGTDFTLTISSLEPEDFAVYYCQQRSNWPLTFGQGTKVEIKR | 4390 | 0.04 | 225000 | 0.03 | 2990 | – | – |
| I23RB189 (antibody, mouse IgG2a, kappa, V domains shown, immunization; mouse IgG2a/kappa) VH: DVQLQESGPDLVKPSQSLSLTCTVTGYSITSGYNWHWIRQFPGNKLEWMGYIHSSGTTNYSPSLRSRLSITRDTSKNQFFLQLNSVTTEDTATYYCTRQLGLKAMEYWGQGTTLTVSS VL: DIVLTQSPKSMSMSVGERVTLSCKASENVGTYVSWYQQKPEQSPKLLMYGASNRYTGVPDRFTGSGSATDFTLTISSVQAEDLADYHCGQSYSYPPTFGGGTKLEIKR | – | – | – | – | – | no binding | – |
| I23RB149 (antibody, mouse IgG2a, kappa, V domains shown, immunization; mouse IgG2a/kappa) VH: DVQLQESGPDLVKPSQSLSLTCTVTGYSITSGYNWHWIRQFPGNKLEWMGYIHFSDRTNYNPSLKSRISITRDTSKNQFFLQLNSVTSEDTATYYCSRQLGLKALDYWGQGTTLTVSS VL: DVQMIQSPLSLPVSLGDQASISCRSSQSLVHSNGNTYLHWYLQKPGQSPKLLIYKVSNRFSGVPDRFSGSGSGTDFTLKISRVEAEDLGVYFCSQSTHVPLTFGAGTRLEIKR | – | – | – | – | – | no binding | – |
| I23RB7 (antibody, mouse IgG2a, kappa, V domains shown, phage display; mouse V, mouse IgG2a/kappa) VH: QIQLVQSGPELKKPGETVKISCKASGYTFTTYGMSWVKQAPGKGLKWMGWINTYSGVPTYADDFKGRFAFSLETSASTAYLQINNLKNEDTATYYCARRDRYGYVAGAFAYWGQGTLVTVSS VL: QIVLTQSPAIMSASPGEKVTMTCSASSSVSYMYWYQQKPGSSPRLLIYDTSNLASGVPVRFSGSGSGTSYSLTISRMEAEDAATYYCQQWSSYPWTFGGGTKLEIKR | 4320 | 0.07 | 172000 | 0.1 | 2230 | – | 1 |
